These results are taken from PMC5603731, “The SET1 Complex Selects Actively Transcribed Target Genes via Multivalent Interaction with CpG Island Chromatin” (Cell Reports, 2017).

No end group written: not given here.

In one assay the test system is mouse C127 cells. Description: FRAP, nuclear mobility of GFP fusion proteins. The following applies: compared to wild-type GFP-CFP1. It counts as cell-based. The method, then:
FRAP experiments were performed on an UltraView spinning disk microscope (Perkin Elmer) equipped with an EM-CCD camera (Hamamatsu) using a 60x/1.4NA oil objective. 50 pre-bleach and 1,000 post-bleach images were captured at a rate of 8 frames per second (fps) (Figures 1B and C) after bleaching a circular diffraction limited spot of ∼2.5 μm diameter using a 488-nm laser line at 100% transmission. Alternatively, to capture the rapid recovery of the P/C/S^∗ mutant effectively, we used an acquisition rate of 13 fps (Figures 1E and F). FRAP curves were calculated in MATLAB, normalizing for the initial conditions (brightness of the cell and brightness of the spot) and corrected for acquisition photobleaching over time ([Mueller et al., 2012]). Half recovery times (t1/2) were calculated using a biexponential fit. Briefly, this involved deriving t1/2 values from individual cells (Figures S1F and S1G) and then collecting the distribution of t1/2 values across biological triplicates for the same transgene (Figures S1H and S1I). To compare the dynamics of individual GFP-CFP1 transgenes, a Student’s t test was then used to calculate the probability (p) that there was no difference between the wild-type and mutant versions of CFP1.
Supplementary Experimental Procedures: […]
Fluorescence recovery after photobleaching (FRAP) […]

Assay [1] deals with CFP1 PHD domain. Put plainly: other fluorescence titration; intrinsic fluorescence of the CFP1 PHD finger, excitation 280 nm, emission 320-380 nm; increasing concentrations of histone peptide; 20 mM Tris-HCl pH 6.8, 100 mM NaCl, 2.5 mM DTT; 25°C.
Assay [2] concerns the target CFP1 PHD domain. Put plainly: NMR titration; 1H,15N HSQC of 0.1-0.2 mM uniformly 15N-labelled CFP1 PHD finger; histone tail peptides added stepwise; 20 mM Tris-HCl pH 6.8, 100 mM NaCl, 2.5 mM DTT, 7% D2O; 298 K.

One may read the Kd as the equilibrium constant for the complex coming apart. Read a low Kd as tighter binding.

Take GFP-SET1A: GFP-tagged wild-type SET1A: in the assay on mouse C127 cells, the “Nuclear mobility (FRAP)” value is “slightly less mobile than GFP-CFP1”.

Turning to ARTK(trimethyl)QTARKSTG [H3K4me3 peptide], the Kd with CFP1 PHD domain [1] turned out to be 1.3 µM.

Molecule ARTK(dimethyl)QTARKSTG [H3K4me2 peptide] yielded a dissociation constant (Kd) in the assay with CFP1 PHD domain [1] of 9.1 µM.

B1: unmodified H3K4me0 peptide (peptide)
chain: ARTKQTARKSTG
modifications: here or on the partner: zinc-bound PHD finger; 15N-labelled for NMR. Construct limits are not in the text shown, so the UniProt PHD-type zinc finger limits are used; human is inferred from the NP_001095124.1 alignment and th
With B1, in the assay with CFP1 PHD domain [2], the dissociation constant Kd is 373 µM.

With ARTK(Me)QTARKSTG [H3K4me1 peptide], the Kd with CFP1 PHD domain [1] was found to be 64 µM.
